Consider two molecules from patent US7205275 (dated 2007).

The labels stand for the following.
B1: human Ang-2 (protein)
chain: YNNFRKSMDSIGKKQYQVQHGSCSYTFLLPEMDNCRSSSSPYVSNAVQRDAPLEYDDSVQRLQVLENIMENNTQWLMKLENYIQDNMKKEMVEIQQNAVQNQTAVMIEIGTNLLNQTAEQTRKLTDVEAQVLNQTTRLELQLLEHSLSTNKLEKQILDQTSEINKLQDKNSFLEKKVLAMEDKHIIQLQSIKEEKDQLQVLVSKQNSIIEELEKKIVTATVNNSVLQKQQHDLMETVNNLLTMMSTSNSAKDPTVAKEEQISFRDCAEVFKSGHTTNGIYTLTFPNSTEEIKAYCDMEAGGGGWTIIQRREDGSVDFQRTWKEYKVGFGNPSGEYWLGNEFVSQLTNQQRYVLKIHLKDWEGNEAYSLYEHFYLSSEELNYRIHLKGLTGTAGKISSISQPGNDFSTKDGDNDKCICKCSQMLTGGWWFDACGPSNLNGMYYPQRQNTNKFNGIKWYYWKGSGYSLKATTMMIRPADF

The target of assay [1] is Negative Control Peptibody 4883. Briefly: ELISA.
Assay [2] concerns the target B1. Briefly: ELISA.
The target in assay [3] is T1, mouse Ang-2 (mouse, UniProt O35608).
T1 chain: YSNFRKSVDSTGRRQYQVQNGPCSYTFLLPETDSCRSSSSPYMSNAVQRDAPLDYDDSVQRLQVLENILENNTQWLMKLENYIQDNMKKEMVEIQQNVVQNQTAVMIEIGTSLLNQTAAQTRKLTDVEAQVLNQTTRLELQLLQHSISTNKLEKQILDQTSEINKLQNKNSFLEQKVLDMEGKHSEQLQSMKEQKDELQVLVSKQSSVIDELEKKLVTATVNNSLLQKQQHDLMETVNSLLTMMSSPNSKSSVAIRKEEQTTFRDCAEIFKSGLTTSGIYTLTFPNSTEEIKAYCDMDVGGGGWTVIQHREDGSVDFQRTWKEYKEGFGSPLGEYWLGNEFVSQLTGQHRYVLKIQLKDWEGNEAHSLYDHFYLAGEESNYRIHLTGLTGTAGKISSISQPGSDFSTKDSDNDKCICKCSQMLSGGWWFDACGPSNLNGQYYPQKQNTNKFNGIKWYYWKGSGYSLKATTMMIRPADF
As to the kind of experiment: SPR.

For assay [4], the target named is T2, human Ang-1 (human, UniProt Q15389).
T2 chain: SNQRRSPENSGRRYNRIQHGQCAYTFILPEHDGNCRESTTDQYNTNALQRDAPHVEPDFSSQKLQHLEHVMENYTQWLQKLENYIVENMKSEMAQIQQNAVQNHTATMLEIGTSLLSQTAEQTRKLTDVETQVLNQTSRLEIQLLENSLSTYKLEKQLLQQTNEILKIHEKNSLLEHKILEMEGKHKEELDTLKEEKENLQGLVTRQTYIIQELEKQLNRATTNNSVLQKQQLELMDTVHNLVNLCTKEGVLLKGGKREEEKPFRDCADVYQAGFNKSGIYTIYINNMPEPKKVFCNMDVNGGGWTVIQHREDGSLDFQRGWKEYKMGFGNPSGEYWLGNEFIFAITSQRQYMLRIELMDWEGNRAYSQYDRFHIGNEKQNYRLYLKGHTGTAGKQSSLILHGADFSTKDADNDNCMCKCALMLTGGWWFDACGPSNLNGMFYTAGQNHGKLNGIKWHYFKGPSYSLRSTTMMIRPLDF
As to the kind of experiment: ELISA.

The target of assay [5] is T1, mouse Ang-2. As to the kind of experiment: competition ELISA vs Tie-2.
For assay [6], the target named is T2, human Ang-1. Briefly: competition ELISA vs Tie-2.
The target of assay [7] is T1, mouse Ang-2. Briefly: ELISA.
Assay [8] deals with B1. Briefly: SPR.
The target of assay [9] is B1. As to the kind of experiment: competition ELISA vs Tie-2.

Where no end group is shown, it is not given here. [ ]: non-standard residue; d: D form. Fc = immunoglobulin Fc domain fused to the peptide (peptibody)

B1: in [1], the binding result is on record as “no binding”.

B2: Con4 (N) (peptide)
chain: MGAQQEECEWDPWTCEHMLEGGGGG[Fc]
modifications: not fully specified (bridges); printed as MGAQQEECEWDPWTCEHMLEGGGGG-Fc; cysteine pairing not given here; also: Fc fusion domain at position 26
B2: the EC50 in the assay with human Ang-2 [2] amounted to 0.03 nM; in the assay with mouse Ang-2 [7], 0.07 nM. Also, the Kd was 0.6 nM with mouse Ang-2 [3] and 0.67 nM in the assay with human Ang-2 [8]. For the same molecule, in the assay with human Ang-1 [4], the binding result is reported as “no binding”. Moreover, the IC50 with mouse Ang-2 [5] is 0.72 nM; with human Ang-1 [6] it was over 1000 nM; with human Ang-2 [9], 0.85 nM.
